Measurements from article PMC2749713 (Molecular cell, 2009).
Numbering of substitutions follows the chain as printed. Names may count otherwise. Values belong to the binder of their own block, whether it stands above or below them. No end group written: not given here.

Key:
PP2A C subunit (Cα) = PP2A C subunit (Cα) (human, UniProt P67775 1-309); test: crystal structure
AαB56γCα PP2A holoenzyme = AαB56γCα PP2A holoenzyme (human, UniProt P30153 2-589; Q13362 1-524; P67775 1-309); test: SEC + other: dynamic light scattering
Chain of AαB56γCα PP2A holoenzyme (P30153 2-589, chain 1 of 3): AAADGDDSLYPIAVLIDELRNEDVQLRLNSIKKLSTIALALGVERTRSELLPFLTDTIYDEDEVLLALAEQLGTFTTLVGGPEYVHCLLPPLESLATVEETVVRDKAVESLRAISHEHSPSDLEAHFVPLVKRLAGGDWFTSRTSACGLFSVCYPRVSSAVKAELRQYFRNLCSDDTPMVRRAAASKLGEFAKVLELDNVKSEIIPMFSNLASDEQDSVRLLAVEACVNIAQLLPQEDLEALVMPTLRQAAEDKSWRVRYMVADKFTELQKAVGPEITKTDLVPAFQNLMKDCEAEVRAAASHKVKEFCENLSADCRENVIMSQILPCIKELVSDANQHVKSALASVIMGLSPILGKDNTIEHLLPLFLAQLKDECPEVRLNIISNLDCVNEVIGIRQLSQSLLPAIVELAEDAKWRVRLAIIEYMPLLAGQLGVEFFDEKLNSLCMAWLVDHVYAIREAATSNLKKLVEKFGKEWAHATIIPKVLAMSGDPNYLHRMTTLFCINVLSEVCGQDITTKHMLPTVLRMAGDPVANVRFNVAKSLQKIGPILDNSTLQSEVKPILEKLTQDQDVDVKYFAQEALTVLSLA
Chain of AαB56γCα PP2A holoenzyme (Q13362 whole entry, chain 2 of 3): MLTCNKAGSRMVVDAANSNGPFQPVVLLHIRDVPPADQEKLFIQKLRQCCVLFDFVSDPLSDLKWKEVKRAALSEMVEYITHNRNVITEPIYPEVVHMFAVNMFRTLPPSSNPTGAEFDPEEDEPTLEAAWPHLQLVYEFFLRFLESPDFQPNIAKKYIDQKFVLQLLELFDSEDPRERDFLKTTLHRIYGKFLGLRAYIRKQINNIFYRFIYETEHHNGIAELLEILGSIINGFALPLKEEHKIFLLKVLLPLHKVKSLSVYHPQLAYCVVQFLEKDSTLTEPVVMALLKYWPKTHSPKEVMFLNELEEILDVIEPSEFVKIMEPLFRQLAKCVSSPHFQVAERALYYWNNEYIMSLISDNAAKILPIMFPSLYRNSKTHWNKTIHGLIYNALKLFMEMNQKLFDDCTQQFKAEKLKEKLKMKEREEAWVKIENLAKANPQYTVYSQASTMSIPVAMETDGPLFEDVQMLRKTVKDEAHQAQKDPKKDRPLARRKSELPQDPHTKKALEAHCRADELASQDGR
Chain of AαB56γCα PP2A holoenzyme (P67775 whole entry, chain 3 of 3): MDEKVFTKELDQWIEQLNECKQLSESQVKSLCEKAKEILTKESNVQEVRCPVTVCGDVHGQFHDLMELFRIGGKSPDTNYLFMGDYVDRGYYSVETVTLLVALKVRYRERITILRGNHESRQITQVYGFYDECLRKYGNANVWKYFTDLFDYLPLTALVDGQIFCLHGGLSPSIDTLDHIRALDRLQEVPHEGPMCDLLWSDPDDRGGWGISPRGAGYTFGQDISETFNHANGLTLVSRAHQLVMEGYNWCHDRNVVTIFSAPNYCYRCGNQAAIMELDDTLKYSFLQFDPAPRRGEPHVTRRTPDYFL

[1] = target: FLAG-tagged MBP-Sgo1(47-105) (human, UniProt Q5FBB7 47-105); test: pull-down
[2] = target: FLAG-tagged MBP-Sgo1(47-105) Y57A/K62A (dimerization assay) (human, UniProt Q5FBB7 47-105, Y57A | K62A); test: pull-down
[3] = target: FLAG-tagged MBP-Sgo1(47-105) N60A/K62A (dimerization assay) (human, UniProt Q5FBB7 47-105, N60A | K62A); test: pull-down
[4] = target: FLAG-tagged MBP-Sgo1(47-105) N61I (dimerization assay) (human, UniProt Q5FBB7 47-105, N61I); test: pull-down
[5] = target: FLAG-Sgo1(51-105) peptide (human, UniProt Q5FBB7 51-105); test: pull-down
[6] = target: FLAG-tagged MBP-Sgo1(47-105) Y57A/N60A (dimerization assay) (human, UniProt Q5FBB7 47-105, Y57A | N60A); test: pull-down

Chain of PP2A C subunit (Cα) (P67775 whole entry): as the sequence (P67775 whole entry, chain 3 of 3) above

Binder: STLLKNYQDNNKMLVLALENEKSKVKEAQDIILQLRKECYYLTCQL (peptide, UniProt Q5FBB7 51-96, looked up) [Sgo1(51-96) peptide]
- binding result (PP2A C subunit (Cα)): binds

B2: MBP-Sgo1(51-105) Y57A/K62A, untagged (dimerization assay) (domain or fragment, human, UniProt Q5FBB7 51-105, looked up)
chain: STLLKNAQDNNAMLVLALENEKSKVKEAQDIILQLRKECYYLTCQLYALKGKLTS
modifications: cysteine pairing not given here; also: MBP fusion
- binding result [2]: binds

B3: MBP-Sgo1(51-105) N60A/K62A, untagged (dimerization assay) (domain or fragment, human, UniProt Q5FBB7 51-105, looked up)
chain: B2 chain with A7Y, N10A
modifications: cysteine pairing not given here; also: MBP fusion
- binding result [3]: binds

B6: MBP-Sgo1(51-105) Y57A/N60A, untagged (dimerization assay) (domain or fragment, human, UniProt Q5FBB7 51-105, looked up)
chain: B2 chain with N10A, A12K
modifications: cysteine pairing not given here; also: MBP fusion
- binding result [6]: binds

More lines, now with the values ahead:

- stoichiometry N (AαB56γCα PP2A holoenzyme): 2 Sgo1 per PP2A holoenzyme
- binding result [1]: binds
B1: MBP-Sgo1(51-105) (domain or fragment, human, UniProt Q5FBB7 51-105, looked up)
chain: B2 chain with A7Y, A12K

- binding result [4]: binds
B4: MBP-Sgo1(51-105) N61I, untagged (dimerization assay) (domain or fragment, human, UniProt Q5FBB7 51-105, looked up)
chain: B2 chain with A7Y, N11I, A12K
modifications: cysteine pairing not given here; also: MBP fusion

- stoichiometry N (AαB56γCα PP2A holoenzyme): 2 Sgo1 per PP2A holoenzyme
- binding result [5]: binds
B5: Sgo1(51-105) (peptide, UniProt Q5FBB7 51-105, looked up)
chain: B2 chain with A7Y, A12K
